Reference: US20260327336 (published 2026)

Legend:
[1] = target: T1, HER2 (human, UniProt P04626); test: BLI, 30C, E. coli-expressed
[2] = target: T1, HER2; test: BLI, 30C, ExpiCHO-expressed

Kd [1]: 1.5 nM
Kd [2]: 0.28 nM
B1: LH_S-C (antibody)
chain 1: EVQLVESGGGLVQPGGSLRLSVAASGFNIKDTYIHWVRQAPGKGLEWVARIYPTNGYTRYADSVKGRFTISADTSKNTAYLQMNSLRAEDTAVYYASRWGGDGFYCMDYWGQGTLVTVSS
chain 2: not shown
